Laboratory results taken from US20200308244A1 (ORIONIS BIOSCIENCES, published 2020).
Read-outs that look alike come from different tables or passages of the source.

Key:
Experiment in all cases: cell-based or functional assay
[1] = target: T1, type I interferon-α/β receptor (IFNAR), composed of the IFNAR1 and IFNAR2 subunits (human) (UniProt P17181)
T1 sequence (looked up) 1: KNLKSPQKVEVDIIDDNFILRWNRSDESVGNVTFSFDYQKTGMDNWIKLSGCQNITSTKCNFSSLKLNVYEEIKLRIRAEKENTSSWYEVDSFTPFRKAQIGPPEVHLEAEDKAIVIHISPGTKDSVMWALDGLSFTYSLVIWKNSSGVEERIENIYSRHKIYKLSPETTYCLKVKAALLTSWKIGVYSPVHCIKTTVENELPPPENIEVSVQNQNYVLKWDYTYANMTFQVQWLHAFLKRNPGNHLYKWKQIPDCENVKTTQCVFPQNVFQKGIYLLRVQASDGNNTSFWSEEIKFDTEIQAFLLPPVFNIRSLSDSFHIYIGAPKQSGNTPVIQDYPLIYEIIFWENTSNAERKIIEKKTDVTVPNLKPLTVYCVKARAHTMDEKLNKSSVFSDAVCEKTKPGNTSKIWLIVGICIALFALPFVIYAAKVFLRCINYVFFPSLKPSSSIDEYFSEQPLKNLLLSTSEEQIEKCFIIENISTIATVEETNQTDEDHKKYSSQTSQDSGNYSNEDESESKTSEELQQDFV
T1 sequence (looked up) 2: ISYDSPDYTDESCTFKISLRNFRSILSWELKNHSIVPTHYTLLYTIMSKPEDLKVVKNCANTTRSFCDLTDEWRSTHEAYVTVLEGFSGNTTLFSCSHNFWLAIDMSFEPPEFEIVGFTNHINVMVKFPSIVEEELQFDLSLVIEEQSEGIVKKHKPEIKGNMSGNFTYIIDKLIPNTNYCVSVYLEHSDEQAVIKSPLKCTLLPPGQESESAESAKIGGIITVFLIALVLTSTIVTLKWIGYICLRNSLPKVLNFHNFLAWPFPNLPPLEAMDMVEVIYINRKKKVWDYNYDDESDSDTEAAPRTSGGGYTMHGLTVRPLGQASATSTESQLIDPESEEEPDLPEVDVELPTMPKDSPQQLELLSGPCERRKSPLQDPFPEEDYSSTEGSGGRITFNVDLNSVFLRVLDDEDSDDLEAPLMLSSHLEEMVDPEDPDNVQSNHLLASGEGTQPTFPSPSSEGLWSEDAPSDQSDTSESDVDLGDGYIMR

[2] = target: T1, type I interferon-α/β receptor (IFNAR), composed of the IFNAR1 and IFNAR2 subunits (human); remark: listed apart in the source
[3] = target: T2, type I interferon-α/β receptor (IFNAR), composed of the IFNAR1 and IFNAR2 subunits (human, UniProt P17181 28-557; P48551 27-515)
T2 sequence (looked up) 1: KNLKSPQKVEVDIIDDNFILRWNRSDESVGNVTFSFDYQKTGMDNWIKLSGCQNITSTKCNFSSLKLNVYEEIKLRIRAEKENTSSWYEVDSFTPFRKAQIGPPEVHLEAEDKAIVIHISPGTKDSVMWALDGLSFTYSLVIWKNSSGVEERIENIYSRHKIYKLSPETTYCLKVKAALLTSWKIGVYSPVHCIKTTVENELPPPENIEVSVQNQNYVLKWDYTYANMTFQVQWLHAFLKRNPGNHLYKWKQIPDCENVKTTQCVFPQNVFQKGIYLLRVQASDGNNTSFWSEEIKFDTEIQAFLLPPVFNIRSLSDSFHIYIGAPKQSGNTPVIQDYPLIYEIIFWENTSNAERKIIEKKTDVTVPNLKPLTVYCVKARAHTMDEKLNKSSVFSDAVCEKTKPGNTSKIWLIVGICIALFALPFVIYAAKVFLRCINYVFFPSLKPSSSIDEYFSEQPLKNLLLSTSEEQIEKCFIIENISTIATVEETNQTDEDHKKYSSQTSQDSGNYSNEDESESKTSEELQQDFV
T2 sequence (looked up) 2: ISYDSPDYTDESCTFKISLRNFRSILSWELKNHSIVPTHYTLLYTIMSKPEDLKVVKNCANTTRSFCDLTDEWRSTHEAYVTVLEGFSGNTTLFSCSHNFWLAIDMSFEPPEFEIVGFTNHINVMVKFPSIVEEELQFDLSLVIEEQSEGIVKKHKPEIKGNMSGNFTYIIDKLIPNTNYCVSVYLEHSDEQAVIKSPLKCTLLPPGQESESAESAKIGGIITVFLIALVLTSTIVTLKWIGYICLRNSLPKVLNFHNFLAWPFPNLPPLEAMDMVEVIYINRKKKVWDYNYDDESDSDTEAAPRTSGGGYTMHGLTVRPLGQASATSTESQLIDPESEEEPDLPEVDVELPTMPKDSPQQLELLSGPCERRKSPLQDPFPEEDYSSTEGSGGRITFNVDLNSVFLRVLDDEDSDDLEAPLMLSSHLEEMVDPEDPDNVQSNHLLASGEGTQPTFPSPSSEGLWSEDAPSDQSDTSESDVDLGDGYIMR

Molecule: wild type IFNα2a (Example 7) (from UniProt P01563 24-188) (ligand)
- EC50 6-16 reporter activity, HL116 [1]: 0.008 nM
- EC50 6-16 reporter activity, HL116-CLEC9A [1]: 0.006 nM

B1: wild type interferon alpha 1 (IFNα1) (ligand)
chain: CDLPETHSLDNRRTLMLLAQMSRISPSSCLMDRHDFGFPQEEFDGNQFQKAPAISVLHELIQQIFNLFTTKDSSAAWDEDLLDKFCTELYQQLNDLEACVMQEERVGETPLMNADSILAVKKYFRRITLYLTEKKYSPCAWEVVRAEIMRSLSLSTNLQERLRRKE
- EC50 6-16 reporter activity, HL116 [2]: 0.105 nM
- EC50 6-16 reporter activity, HL116 (Exp 1) [2]: 2.38 ng/mL
- EC50 6-16 reporter activity, HL116-CLEC9A [2]: 0.084 nM
- EC50 6-16 reporter activity, HL116-huCD20 (Exp 1) [2]: 3.25 ng/mL
- EC50 of luciferase (6-16 reporter) induction in HL116-CLEC9A cells [2]: 1.6 ng/mL
- EC50 of luciferase (6-16 reporter) induction in parental HL116 cells [2]: 2 ng/mL
- EC50 pSTAT1 in PBMC's, CD20 negative (Exp 1) [2]: 7.51 ng/ml
- EC50 pSTAT1 in PBMC's, CD20 negative (Exp 2) [2]: 6.77 ng/ml
- EC50 pSTAT1 in PBMC's, CD20 positive (Exp 1) [2]: 3.97 ng/ml
- EC50 pSTAT1 in PBMC's, CD20 positive (Exp 2) [2]: 2.72 ng/ml
- fold decrease in potency in 6-16 reporter induction relative to IFNα2 [2]: 10 to 15 fold
- ratio CD20 neg/pos of EC50 6-16 reporter activity (Exp 1) [2]: 0.7
- ratio CD20 neg/pos of EC50 pSTAT1 in PBMC's (Exp 1) [2]: 2
- ratio CD20 neg/pos of EC50 pSTAT1 in PBMC's (Exp 2) [2]: 2.5
- ratio of EC50 6-16 reporter activity, HL116 / HL116-CLEC9A [2]: 1.2

B2: CD20 VHH-(GGS)20-hIFNα1-His6 (other)
chain: QVQLQESGGGLAQAGGSLRLSCAASGRTFSMGWFRQAPGKEREFVAAITYSGGSPYYASSVRGRFTISRDNAKNTVYLQMNSLKPEDTAVYYCAANPTYGSDWNAENWGQGTQVTVSSVDGGSGGSGGSGGSGGSGGSRSGGSGGSGGSGGSGGSGGSGGSGGSGGSGGSGGSGGSGGSAAACDLPETHSLDNRRTLMLLAQMSRISPSSCLMDRHDFGFPQEEFDGNQFQKAPAISVLHELIQQIFNLFTTKDSSAAWDEDLLDKFCTELYQQLNDLEACVMQEERVGETPLMNADSILAVKKYFRRITLYLTEKKYSPCAWEVVRAEIMRSLSLSTNLQERLRRKELEHHHHHH
- EC50 6-16 reporter activity, HL116-huCD20 (Exp 1) [3]: 0.0241 ng/mL
- EC50 pSTAT1 in PBMC's, CD20 positive (Exp 1) [3]: 0.114 ng/ml
- EC50 pSTAT1 in PBMC's, CD20 positive (Exp 2) [3]: 0.085 ng/ml
